According to patent US20240182575A1 (Ablynx, published 2024):

Legend:
[1] = target: T1, HuCD86-HuIgG1 (fusion protein of the extracellular part of human CD86 and human Fc gamma 1, R&D Systems Cat … (human, UniProt P42081 24-247)); test: SPR, Biacore 3000, antigen amine-coupled
T1 construct: extracellular domain; bought; also called CD86-IgG1; CD86-Ig; not shown: human Fc gamma 1
T1 sequence (looked up): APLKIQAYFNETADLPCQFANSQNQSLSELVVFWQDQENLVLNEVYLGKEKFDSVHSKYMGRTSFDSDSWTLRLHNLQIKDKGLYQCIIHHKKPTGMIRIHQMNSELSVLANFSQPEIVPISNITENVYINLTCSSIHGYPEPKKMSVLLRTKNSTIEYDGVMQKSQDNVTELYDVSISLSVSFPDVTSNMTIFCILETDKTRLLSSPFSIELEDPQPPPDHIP
Protocol: (§1) Affinity constants (Kd) of individual purified Nanobody clones were determined by surface plasmon resonance on a Biacore 3000 instrument. […] Remaining reactive groups were inactivated using ethanolamine. Nanobody binding was assessed at 1 and 0.1 microM. Each sample was injected for 4 min at a flow rate of 45 μl/min to allow for binding to chip-bound antigen. Next, binding buffer without Nanobody was sent over the chip at the same flow rate to allow for dissociation of bound Nanobody. After 2 min, remaining bound analyte was removed by injecting regeneration solution (50 mM NaOH or Glycine/HCl pH 1.5). Binding curves obtained at different concentrations of Nanobody were used to calculate Kd values.

[2] = target: T2, HuCD80-HuIgG1 (fusion protein of the extracellular part of human CD80 and human Fc gamma 1, R&D Systems Cat … (human, UniProt P33681 35-242)); test: SPR, Biacore 3000, antigen amine-coupled
T2 construct: extracellular domain; bought, produced in NS0 cells; also called CD80-IgG1; CD80-Ig; not shown: human Fc gamma 1
T2 sequence (looked up): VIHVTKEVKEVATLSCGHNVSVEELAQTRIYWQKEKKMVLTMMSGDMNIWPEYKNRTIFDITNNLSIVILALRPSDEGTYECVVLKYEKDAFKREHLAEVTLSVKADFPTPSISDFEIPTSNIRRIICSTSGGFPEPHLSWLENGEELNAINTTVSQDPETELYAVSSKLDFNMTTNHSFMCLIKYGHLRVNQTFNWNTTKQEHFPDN
Protocol: as §1

[3] = target: T3, HuCD86-MuIgG2a (fusion protein of the extracellular part of human CD86 and mouse Fc gamma 2a, Ancell Cat … (human; mouse, UniProt P42081 24-247; P01863 98-330 = IgG part); test: competition ELISA, coated CD86-Ig; blocked ligand CD28-Ig
T3 construct: extracellular domain;domain: Fc; bought; also called B7-2

[4] = target: T4, HuCD80-MuIgG2a (extracellular (173aa) domain of human CD80 fused to murine IgG2a Fc+hinge (232 aa), Ancell … (human; mouse, UniProt P33681 35-242); test: competition ELISA, coated CD80-Ig; blocked ligand CD28-Ig
T4 construct: extracellular domain; bought, produced in CHO cells; also called B7-1-muFc; not shown: murine IgG2a Fc+hinge (232 aa)
T4 sequence (looked up): T2 sequence (looked up)
Protocol: Inhibition was determined based on OD values of controls having received no Nanobody (high control) or no CD28- or CTLA4-HuIgG1 fusion protein (low control).

B1: CD8086PMP1E11 (VHH)
VHH: EVQLVESGGGLVQPGGSLRLSCAASGFTLDYSAIGWFRQAPGKEREGVSYISSSDGSTYYADSVEGRFTISRDNAKNTLYLQMNSLKPEDTAVYYCAAGGPFTVSTMPWLANYWGQGTQVTVSS
notes: not shown: C-terminal c-myc tag and His6 tag
- Kd [1]: 553 nM
- koff [1]: 0.002 s⁻¹
- kon [1]: 3600 M⁻¹ s⁻¹
- Kd [2]: 23 nM
- koff [2]: 0.0004 s⁻¹
- kon [2]: 18000 M⁻¹ s⁻¹
- IC50 (read off the curve) [3]: ~10 nM
- IC50 (read off the curve) [4]: ~400 nM
